Data: patent US20230203203A1 (YISSUM RESEARCH DEVELOPMENT COMPANY OF THE HEBREW …, published 2023)
Square brackets hold non-standard residues; d marks the D form. Ends that are not written are not given here. AEEA = NCCOCCOCC(=O)O

Legend:
[1] = target: T1, human CD177 (human, UniProt Q8N6Q3 22-408); test: flow cytometry on WBCs of healthy volunteers, anti-M13-PE (FIG. 13I)
T1 construct: whole, on cells; On circulating human neutrophils of donors and patients; also called CD177 (on human neutrophils)
T1 sequence (looked up): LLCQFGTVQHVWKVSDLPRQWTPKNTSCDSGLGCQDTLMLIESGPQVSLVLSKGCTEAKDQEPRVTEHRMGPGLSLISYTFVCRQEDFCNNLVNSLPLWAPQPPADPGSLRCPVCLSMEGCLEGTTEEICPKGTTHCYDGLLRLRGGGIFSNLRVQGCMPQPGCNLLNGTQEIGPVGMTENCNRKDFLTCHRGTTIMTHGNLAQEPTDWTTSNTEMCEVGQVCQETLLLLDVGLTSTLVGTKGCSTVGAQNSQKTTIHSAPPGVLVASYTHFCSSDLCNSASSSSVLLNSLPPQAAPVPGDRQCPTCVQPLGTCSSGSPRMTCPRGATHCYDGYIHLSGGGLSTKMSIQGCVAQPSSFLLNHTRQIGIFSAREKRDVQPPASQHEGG
Experimental: In order to assess the binding efficiency of each peptide to human circulating neutrophils, and the level of variability between individuals, the individual binding of each peptide to 5-8 healthy volunteers was assessed. Blood withdrawn from healthy volunteers was overlaid on 3% dextran in 0.9% NaCl in a 1:1 ratio and left at RT for 25 min to allow erythrocyte sedimentation. Residual RBCs were lysed by adding water for 30 sec and stopped by adding PBS×5 supplemented with 2.5% BSA. Following red blood cell lysis, 0.5×10⁶ WBCs were incubated with each phage separately. The level of binding of the different phages to the neutrophils was then assessed by flow cytometry. Neutrophils were identified based on a CD66b⁺ SSC^high gating, and the level of phage binding was assessed using PE-conjugated anti-M13 antibody for specific phage staining.

[2] = target: T2, murine CD177 (mouse, UniProt Q8R2S8 22-817); test: flow cytometry on WBC of 4T1 tumor bearing mice, anti-M13-PE; target named as neutrophils
T2 construct: whole, on cells; On murine neutrophils (HDN, TAN, circulating), on HEK293T cells ectopically expressing it, and from neutrophil lysate in the pull-down; also called mouse CD177; CD177 (on murine neutrophils)
T2 sequence (looked up): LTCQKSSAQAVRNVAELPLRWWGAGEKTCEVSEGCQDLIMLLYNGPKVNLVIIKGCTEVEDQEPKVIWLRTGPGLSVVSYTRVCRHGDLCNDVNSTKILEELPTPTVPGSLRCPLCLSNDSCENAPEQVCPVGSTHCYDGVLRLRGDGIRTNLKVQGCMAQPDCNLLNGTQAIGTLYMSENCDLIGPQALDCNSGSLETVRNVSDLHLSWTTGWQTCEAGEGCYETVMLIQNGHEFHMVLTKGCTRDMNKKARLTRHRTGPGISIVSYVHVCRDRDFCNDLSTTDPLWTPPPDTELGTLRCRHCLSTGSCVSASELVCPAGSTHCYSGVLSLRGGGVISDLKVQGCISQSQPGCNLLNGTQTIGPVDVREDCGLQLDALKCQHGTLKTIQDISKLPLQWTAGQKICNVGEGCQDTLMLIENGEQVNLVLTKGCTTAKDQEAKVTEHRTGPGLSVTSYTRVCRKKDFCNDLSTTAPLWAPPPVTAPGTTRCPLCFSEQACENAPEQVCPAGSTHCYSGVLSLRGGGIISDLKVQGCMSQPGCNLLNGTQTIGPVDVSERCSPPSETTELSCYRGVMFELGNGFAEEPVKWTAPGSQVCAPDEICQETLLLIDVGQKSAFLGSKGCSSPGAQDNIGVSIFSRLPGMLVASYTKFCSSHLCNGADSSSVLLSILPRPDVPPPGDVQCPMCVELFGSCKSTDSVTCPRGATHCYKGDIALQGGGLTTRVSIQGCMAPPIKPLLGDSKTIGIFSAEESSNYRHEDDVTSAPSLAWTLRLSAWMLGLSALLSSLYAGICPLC

[3] = target: T1, human CD177; test: negative control on WBCs of a lung cancer patient, flow cytometry
[4] = target: T2, murine CD177; test: pull-down from murine neutrophil lysate with biotinylated LQI-tetramer on streptavidin-agarose beads, mass spectrometry
Experimental: After washing, the bound proteins were eluted by incubating the beads for 10 min at 95° C. in protein sample buffer containing beta-mercaptoethanol. The gel was stained using silver staining. Lanes of the eluates of peptide- and control-beads were cut out and analyzed by mass spectrometry.

[5] = target: T2, murine CD177; test: titration on purified murine HDNs, flow cytometry; target named as neutrophils

B1: phage presenting peptide 14 (SSL) (peptide, not shown: large carriers)
chain: SSLMTTQLIATSI
[1]
  percent of circulating neutrophils bound, average of donors: 60%

B2: phage presenting peptide 1.1 (KFP) (other)
chain: KFPDLDSRRLPHMSL
notes: detected with PE-conjugated anti-M13 antibody; not shown: phage coat protein pVIII flanking the inserted peptide
[1]
  percent of circulating neutrophils bound, average of donors: ~60%

B3: phage presenting the … (SEQ ID NO: 9) peptide on coat protein VIII (peptide, part only; not given: phage coat protein VIII, part only)
chain, part: LQIQSWSSSP
[2]
  percent of neutrophils bound: 95%

B4: phage presenting peptide SEL (other)
chain: SELRSTPLLVPS
notes: not shown: phage coat protein pVIII flanking the inserted peptide
[1]
  percent of circulating neutrophils bound, average of donors: ~60%

B5: LQI tetramer peptide, (LQIQSWSSSP-Doa-Doa-C)4-(Mpa)4-Lys2-Lys-beta-Ala-Lys(Biotin)-beta-Ala-OH (peptide)
peptide: LQIQSWSSSP[AEEA][AEEA]C
modifications: also: tetramer: four chains joined via Cys-Mpa to branched Lys core
notes: Branched tetramer, MW 7.6 kDa; Detected with SA-Cy3 after washing ('tetramer alone' assay); also called tetrameric LQI; biotinylated LQI-tetramer
[3]
  binding result: no binding
[4]
  peptide/control ratio: 7.89
[5]
  Kd: 3.3 µM

B6: phage presenting peptide 4 (PSS) (other)
chain: PSSNLESTPLSLL
notes: as for B4
[1]
  percent of circulating neutrophils bound, average of donors: ~60%

B7: phage presenting peptide SLE (other)
chain: SLESSPMAQLPQ
notes: as for B4
[1]
  percent of circulating neutrophils bound, average of donors: ~60%

B8: phage presenting peptide 27 (LAT) (other)
chain: LATTHMVFSPDH
notes: as for B4
[1]
  percent of circulating neutrophils bound, average of donors: ~60%

B9: phage presenting peptide PEL (other)
chain: PELDSKPYFPPL
notes: as for B4
[1]
  percent of circulating neutrophils bound, average of donors: ~60%

B10: phage presenting peptide ELV (other)
chain: ELVTASMPRPNN
notes: as for B4
[1]
  percent of circulating neutrophils bound, average of donors: ~60%
